For data set [1], the target named is T1, SPO11 (beta isoform);TOP6BL (Mus musculus;Mus musculus, UniProt Q9WTK8;J3QMY9 1-396;1-579, |).
T1 sequence 1: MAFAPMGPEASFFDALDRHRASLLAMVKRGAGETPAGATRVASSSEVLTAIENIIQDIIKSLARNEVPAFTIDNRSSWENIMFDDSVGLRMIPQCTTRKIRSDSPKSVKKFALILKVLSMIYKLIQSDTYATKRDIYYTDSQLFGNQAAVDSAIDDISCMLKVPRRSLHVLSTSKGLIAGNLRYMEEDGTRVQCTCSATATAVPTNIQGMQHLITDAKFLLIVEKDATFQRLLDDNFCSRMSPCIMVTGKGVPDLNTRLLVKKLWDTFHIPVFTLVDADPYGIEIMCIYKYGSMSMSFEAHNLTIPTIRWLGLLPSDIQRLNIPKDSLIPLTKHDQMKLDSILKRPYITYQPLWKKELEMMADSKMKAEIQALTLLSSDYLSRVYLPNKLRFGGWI
T1 sequence 2: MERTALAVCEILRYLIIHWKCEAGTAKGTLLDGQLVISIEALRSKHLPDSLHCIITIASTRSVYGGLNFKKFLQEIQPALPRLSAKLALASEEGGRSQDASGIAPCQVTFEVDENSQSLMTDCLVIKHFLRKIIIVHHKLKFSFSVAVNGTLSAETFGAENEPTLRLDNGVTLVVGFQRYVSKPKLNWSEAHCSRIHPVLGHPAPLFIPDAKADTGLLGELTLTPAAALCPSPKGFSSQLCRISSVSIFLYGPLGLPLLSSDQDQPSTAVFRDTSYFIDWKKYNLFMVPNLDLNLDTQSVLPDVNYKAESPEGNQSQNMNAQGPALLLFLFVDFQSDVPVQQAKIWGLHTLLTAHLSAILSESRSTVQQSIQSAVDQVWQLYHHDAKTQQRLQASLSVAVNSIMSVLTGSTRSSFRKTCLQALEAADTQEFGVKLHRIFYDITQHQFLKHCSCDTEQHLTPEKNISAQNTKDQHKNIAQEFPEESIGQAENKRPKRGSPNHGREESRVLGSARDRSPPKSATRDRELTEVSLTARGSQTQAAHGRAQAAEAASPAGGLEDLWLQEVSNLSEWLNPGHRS
Kind of data set: EMSA; double-end binding possible at 0.8 nM; Hairpin EMSA: 25 mM Tris-HCl pH 7.5, 100 mM NaCl, 5 mM MgCl2, 7.5% glycerol, 2 mM DTT, 1 mg/ml BSA, 0.1 nM DNA, 30 min 30 C; cleavage-oligo EMSA: 25 mM HEPES-NaOH pH 7.5, 50 mM NaCl, 5 mM MgCl2, 7.5% glycerol, 1 mg/ml BSA, 2 mM DTT, 4 C. As to conditions: protein: recombinant;recombinant; tags: N-terminal Flag-TEV;untagged; copies: 1;1; label: 5'-32P; 5' overhang 2 nt (TA) at both ends. (In general: In EMSA bound probe runs differently from free probe, usually more slowly.)

In data set [2] the target is T1, SPO11 (beta isoform);TOP6BL. The data set is described as follows: EMSA; double-end binding disfavoured at 0.8 nM, restored at higher protein; Hairpin EMSA: 25 mM Tris-HCl pH 7.5, 100 mM NaCl, 5 mM MgCl2, 7.5% glycerol, 2 mM DTT, 1 mg/ml BSA, 0.1 nM DNA, 30 min 30 C; cleavage-oligo EMSA: 25 mM HEPES-NaOH pH 7.5, 50 mM NaCl, 5 mM MgCl2, 7.5% glycerol, 1 mg/ml BSA, 2 mM DTT, 4 C. As to conditions: protein: recombinant;recombinant; tags: N-terminal Flag-TEV;untagged; copies: 1;1; label: 5'-32P; 5' overhang 2 nt (TA) at both ends.

Data set [3] shares this target. Kind of data set: EMSA; 5 mM Mg2+, 50 mM NaCl, 4 C; apparent Kd for first monomer; doubly bound complexes formed; Hairpin EMSA: 25 mM Tris-HCl pH 7.5, 100 mM NaCl, 5 mM MgCl2, 7.5% glycerol, 2 mM DTT, 1 mg/ml BSA, 0.1 nM DNA, 30 min 30 C; cleavage-oligo EMSA: 25 mM HEPES-NaOH pH 7.5, 50 mM NaCl, 5 mM MgCl2, 7.5% glycerol, 1 mg/ml BSA, 2 mM DTT, 4 C. As to conditions: protein: recombinant;recombinant; tags: N-terminal Flag-TEV;untagged; copies: 1;1; label: 32P (5' labelled, then ligated); closed dumbbell, 44 bp duplex with two A4 hairpin loops.

B1: 22 bp double-overhang duplex (dsDNA)
DNA 1: TAGCAATGTAATCGTCTATGACGT
DNA 2: TAACGTCATAGACGATTACATTGC
As for B1, the binding result in data set [1] was “binds”.

B2: 25 bp double-overhang duplex (dsDNA)
DNA 1: TAGCAATGTAATCGTCTATGACGTTAG
DNA 2: TACTAACGTCATAGACGATTACATTGC
Regarding B2, the binding result in data set [2] is “binds”.

B3: oligonucleotide cleavage substrate (44 bp, A4 loops at both ends) (structured_DNA)
DNA: CGGTTCAAAAGAACCGGAGCTGAATGAAGCCATACCAAACGACGAGCGTGACACAAAAGTGTCACGCTCGTCGTTTGGTATGGCTTCATTCAGCTC
modifications: covalently closed circle (ligated)
With B3, the Kd in data set [3] was 1.8 nM.

B4: 24 bp double-overhang duplex (dsDNA)
DNA 1: TAGCAATGTAATCGTCTATGACGTTA
DNA 2: TATAACGTCATAGACGATTACATTGC
With B4, in data set [2], the binding result is “binds”.

B5: 23 bp double-overhang duplex (dsDNA)
DNA 1: TAGCAATGTAATCGTCTATGACGTT
DNA 2: TAAACGTCATAGACGATTACATTGC
For B5, the binding result in data set [1] is reported as “binds”.

The record behind these values is paper PMC11922745, “Reconstitution of SPO11-dependent double-strand break formation” (Nature, 2024).
